Source: article PMC10070186, “Unusual peptide-binding proteins guide pyrroloindoline alkaloid formation in crocagin biosynthesis” (Nature Chemistry, 2023)

What was measured:
Conditions in all cases: both partners purified
CgnB [1] = target: T1, CgnB (Chondromyces crocatus CM c5); test: MST; microscale thermophoresis of two components; which one was titrated is told only in Fig. 3c
T1 construct: CgnB of the crocagin BGC of Chondromyces crocatus CM c5; Construct details are in the Supplementary Methods; source: purified (HisTrap, His-SUMO removed with TEV protease, Superdex 200)

CgnE = target: T2, CgnE (Chondromyces crocatus CM c5); test: as above
T2 construct: CgnE of the crocagin BGC of Chondromyces crocatus CM c5; Construct details are in the Supplementary Methods; source: purified (HisTrap, His-SUMO removed with TEV protease, Superdex 200)

CgnC = target: T3, CgnC (Chondromyces crocatus CM c5); test: SEC; size-exclusion chromatography of the single proteins in solution
T3 chain: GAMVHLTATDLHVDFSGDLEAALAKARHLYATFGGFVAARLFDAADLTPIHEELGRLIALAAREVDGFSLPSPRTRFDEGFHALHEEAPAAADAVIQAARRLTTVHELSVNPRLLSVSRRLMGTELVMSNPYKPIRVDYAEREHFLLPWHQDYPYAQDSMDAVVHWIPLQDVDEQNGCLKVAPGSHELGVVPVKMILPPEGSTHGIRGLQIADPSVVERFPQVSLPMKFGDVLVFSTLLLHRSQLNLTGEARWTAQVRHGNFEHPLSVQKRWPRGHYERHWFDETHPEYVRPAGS

CgnB [2] = target: T1, CgnB; test: MST; microscale thermophoresis in the presence of a constant, large excess of CgnE (250 µM)
[3] = target: T4, CgnE in the presence of CgnA (400 µM) (Chondromyces crocatus CM c5); test: MST; microscale thermophoresis in the presence of CgnA (400 µM)
T4 construct: CgnE of Chondromyces crocatus CM c5, as m4; CgnA of Chondromyces crocatus CM c5, 21 amino acids, as m1; also called CgnA-CgnE; source: purified CgnE mixed with 400 µM CgnA

[4] = target: T5, CgnB in the presence of CgnA (400 µM) (Chondromyces crocatus CM c5); test: as above
T5 construct: CgnB of Chondromyces crocatus CM c5, as m2; CgnA of Chondromyces crocatus CM c5, 21 amino acids, as m1; also called CgnA-CgnB; source: purified CgnB mixed with 400 µM CgnA

MKKTIKQISAGDRSKKGN [CgnA leader peptide (CgnA^LP)] was tested, and the “fold reduction in affinity compared to CgnA” value (CgnB [1]) was 8 fold and the Kd (CgnE) was 514 µM.

B1: CgnC (enzyme)
chain: T3 chain
modifications: sequence from Supplementary Table 8 (the excerpt mark inside it is read as contiguous); N-terminal GA is a cloning remnant; dimer by size-exclusion chromatography / sequence from Supplementary Table …
For B1, the “stoichiometry N” value (CgnC) was 2.

B2: CgnC in the presence of a constant, large excess (250 µM) of CgnE (complex)
chain 1: T3 chain
chain 2: GMGGRRTIGIRSGEGAIMNASDFYALLRGRGMPVVVDDAEAAAVVSELGFRTVPFEAFDFDSPSEDPALVIVAQMGNVDALHGLWERSGTPLMHLALAKFDGGLSRLRAGLARVLAVDTDAALKRRAEAYEQLFSSASVEIASGEGVLRCHIGDEVEVGNCGDTLEQGFLYSVAEFLEASVVNLEGERSTFWVEGELPFDGFIHLSNSAALKERWGGMLDEFMRRSREGANLVRFADNVIDRLVVGGVDVTSALAGLSQGEERGMAATEFGLGCADAEAAEPFGVNSLLHKSAGGAYIGIGKGLRIPHIDFIARGATIRFIPAAEG
modifications: CgnC is a dimer and CgnE a monomer in solution when alone; stoichiometry of the complex is not given
B2 showed a Kd (CgnB [2]) of 28 µM.

B3: CgnC (enzyme)
chain: T3 chain
modifications: sequence from Supplementary Table 8 (the excerpt mark inside it is read as contiguous); N-terminal GA is a cloning remnant; dimer by size-exclusion chromatography
B3 was tested, and the “fold increase of the CgnC–CgnE affinity on addition of CgnA (400 µM)” value [3] was 2 fold, the Kd [4] was roughly 0.1 µM and the Kd (CgnB [1]) was roughly 6 µM. It also gave a Kd (CgnE) of roughly 1 µM.
